Experimental data taken from article PMC4580526 (Journal of bone and mineral research : the official journal …, 2015).

Tests used:
[1] = target: PTH receptor type-1 (PTH1R), wild-type human (human) (UniProt Q03431)
[2] = target: PTH receptor type-1 (PTH1R), wild-type human (human) (UniProt Q03431); experiment: radioligand binding
COS-7 cells = experiment: Secretion of PTH into conditioned medium of transfected COS-7 cells; type: cell-based; settings: for PTH level in conditioned medium, PTH(1-84) assay / PTH level in conditioned medium, ntPTH assay: 48 hours after transfection, mean ± SEM

Chain of UniProt Q03431 (Q03431 27-593): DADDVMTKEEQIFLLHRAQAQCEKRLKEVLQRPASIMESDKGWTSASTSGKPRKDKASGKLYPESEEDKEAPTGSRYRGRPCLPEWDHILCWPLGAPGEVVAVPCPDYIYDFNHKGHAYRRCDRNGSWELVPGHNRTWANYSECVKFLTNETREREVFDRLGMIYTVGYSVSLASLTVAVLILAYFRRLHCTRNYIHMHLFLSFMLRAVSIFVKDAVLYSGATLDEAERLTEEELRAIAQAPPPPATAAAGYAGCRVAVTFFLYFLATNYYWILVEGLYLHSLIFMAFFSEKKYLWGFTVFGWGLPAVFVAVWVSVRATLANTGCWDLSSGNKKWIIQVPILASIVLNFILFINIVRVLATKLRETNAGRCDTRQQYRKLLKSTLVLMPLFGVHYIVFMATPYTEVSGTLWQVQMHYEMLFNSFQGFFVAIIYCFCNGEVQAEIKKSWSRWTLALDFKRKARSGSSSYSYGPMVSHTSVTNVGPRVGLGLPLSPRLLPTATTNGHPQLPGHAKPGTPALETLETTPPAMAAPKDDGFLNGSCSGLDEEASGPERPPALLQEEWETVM

PLC/IP signaling EC50, IP1 in GP-2.3 cells (Cisbio IP1 assay kit) [1] [nM]	cAMP signaling EC50, Glosensor luminescence in SGS-72 cells (SaOS-2-derived) [1] [nM]	IC50 [2] [nM]	Molecule	PTH level in conditioned medium, PTH(1-84) assay (COS-7 cells) [pg/mL]	PTH level in conditioned medium, ntPTH assay (COS-7 cells) [pg/mL]	secretion of mutant hormone into the medium (COS-7 cells; transfected COS-7 cells)
265	0.27	12.3	[Cys25]PTH(1-34) (peptide)			
			[Cys25]PTH(1-84): mutant hormone with arginine-to-cysteine mutation at position 25 of mature PTH(1-84) (protein, UniProt P01270 32-115, looked up, variant R25C, Parathyroid hormone) Parathyroid hormone: SVSEIQLMHNLGKHLNSMERVEWLCKKLQDVHNFVALGAPLAPRDAGSQRPRKKEDNVLVESHEKSLGEADKADVNVLTKAKSQ	1812 ± 175	30.9 ± 23	efficiently secreted into the medium
			PTH(1-84): wild-type hormone expressed from plasmid encoding wild-type preproPTH in COS-7 cells (protein, UniProt P01270 32-115, looked up, Parathyroid hormone) Parathyroid hormone: SVSEIQLMHNLGKHLNSMERVEWLRKKLQDVHNFVALGAPLAPRDAGSQRPRKKEDNVLVESHEKSLGEADKADVNVLTKAKSQ	1812 ± 94	2285 ± 277	
